According to article PMC8076793:

Target: DexA (bacteriophage T4)
Experiment: SEC; Äkta pure, HiLoad 16/600 Superdex 75 pg (Cef, MRH, Pin, DexA) or Superdex 200 pg (Y04L, Gp57B), in the respective dialysis buffers (Supplementary Table 3)

DexA, sequence (P04536 whole entry): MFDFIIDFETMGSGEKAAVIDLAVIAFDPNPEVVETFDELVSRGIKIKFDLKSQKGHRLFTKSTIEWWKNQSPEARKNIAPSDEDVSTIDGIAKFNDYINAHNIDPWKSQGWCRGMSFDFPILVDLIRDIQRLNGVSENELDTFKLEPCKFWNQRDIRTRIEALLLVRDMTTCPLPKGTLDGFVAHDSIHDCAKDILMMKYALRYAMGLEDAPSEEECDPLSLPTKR

Work on DexA (enzyme) yielded a stoichiometry N of 2.
